Measurements reported in PMC5716252, “Heterologous expression, purification and function of the extracellular domain of human RANK” (BMC Biotechnology, 2017).

Target: T1, RANK-N, soluble form of the extracellular domain of human RANK (human, UniProt Q9Y6Q6 29-213, N-glycosylated (28 kDa band shifts to about 21 kDa with PNGase F); predicted sites Asn 105 and Asn 174, not verified)
T1 construct: Codon-optimised gene cloned into pPIC9K cut with XhoI and NotI; no tag is named; also called recombinant RANK-N
T1 sequence (looked up): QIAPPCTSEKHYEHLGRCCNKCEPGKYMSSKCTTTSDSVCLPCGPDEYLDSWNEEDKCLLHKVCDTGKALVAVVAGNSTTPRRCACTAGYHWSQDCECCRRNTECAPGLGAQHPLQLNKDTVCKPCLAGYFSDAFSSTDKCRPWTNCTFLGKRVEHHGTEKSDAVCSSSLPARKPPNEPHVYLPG
Assay: SPR; Biacore T100; RANKL amine-coupled to a CM5 chip; RANK-N (32.5 to 1000 nM) injected at 30 μl/min, 25 °C, contact 210 s, dissociation 400 s; running buffer 3 mM EDTA, 150 mM NaCl, 10 mM HEPES, 0.05% Surfactant P20; steady-state responses fit to the Hill equation
Conditions: both partners purified

Kd: 2620 nM
B1: RANKL (R&D Systems, 462-TEC-010/CF) (ligand, UniProt O35235 139-316, looked up)
chain: FSGAPAMMEGSWLDVAQRGKPEAQPFAHLTINAASIPSGSHKVTLSSWYHDRGWAKISNMTLSNGKLRVNQDGFYYLYANICFRHHETSGSVPTDYLQLMVYVVKTSIKIPSSHNLMKGGSTKNWSGNSEFHFYSINVGGFFKLRAGEEISIQVSNPSLLDPDQDATYFGAFKVQDID
notes: RANKL, recombinant protein bought from R&D Systems, catalogue 462-TEC-010/CF; As far as I recall, catalogue 462-TEC is R&D's recombinant mouse TRANCE/RANKL (soluble extracellular part, carrier-free); source: bought: R&D Systems (462-TEC-010/CF)
